We go through one substance from paper PMC5773547.

The target of the assay is His-tagged recombinant CHIKV nsP2-NT (1-454) (Chikungunya virus strain S 27).

As for “His-tagged recombinant CHIKV nsP1-WT (1-535) (from UniProt Q8JUX6 1-535) (enzyme)”, the ATPase activity of nsP2-NT (0.2 μg) with nsP1-WT (0.6 μg) against nsP2-NT alone, TLC assay with [γ-P32] ATP, release of free Pi was determined as 1.5 fold and the ATPase activity of nsP2-NT (1 μg) with nsP1-WT (1 μg), colorimetric malachite green assay, Pi release (approximately 86 μM for nsP2-NT alone) was 174 µM.
